According to paper PMC6740199 (Molecular Biology of the Cell, 2019):

Molecular target: T1, six-histidine-tagged Bem1 (His6-Bem1), carrying Bem1 residues from 44 to 551 (S. cerevisiae, UniProt P29366 44-551)
T1 sequence: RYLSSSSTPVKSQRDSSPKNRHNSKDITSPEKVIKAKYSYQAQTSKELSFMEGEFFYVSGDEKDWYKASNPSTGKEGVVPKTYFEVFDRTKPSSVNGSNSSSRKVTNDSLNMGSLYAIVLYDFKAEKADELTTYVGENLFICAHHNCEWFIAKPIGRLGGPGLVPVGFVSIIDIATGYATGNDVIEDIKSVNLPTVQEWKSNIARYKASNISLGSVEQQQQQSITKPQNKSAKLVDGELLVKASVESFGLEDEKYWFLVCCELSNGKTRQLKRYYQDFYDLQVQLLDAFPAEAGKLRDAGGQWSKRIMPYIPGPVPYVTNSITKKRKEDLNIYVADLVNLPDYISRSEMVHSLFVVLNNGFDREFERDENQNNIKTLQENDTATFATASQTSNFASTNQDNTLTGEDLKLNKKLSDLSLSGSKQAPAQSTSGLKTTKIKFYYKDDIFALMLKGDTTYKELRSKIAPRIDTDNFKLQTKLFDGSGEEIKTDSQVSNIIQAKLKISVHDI
Assay: pull-down

B1: GST (glutathione S-transferase)-Rsr1 (natural protein)
chain: MRDYKLVVLGAGGVGKSCLTVQFVQGVYLDTYDPTIEDSYRKTIEIDNKVFDLEILDTAGIAQFTAMRELYIKSGMGFLLVYSVTDRQSLEELMELREQVLRIKDSDRVPMVLIGNKADLINERVISVEEGIEVSSKWGRVPFYETSALLRSNVDEVFVDLVRQIIRNEMESVAVKDARNQSQQFSKIESPSTRLPSSAKQDTKQSNNKQSSKGLYNKSSQGQAKVKQSTPVNEKHKPSHAVPKSGSSNRTGISATSQQKKKKKNASTCTIL
  binding result: binds
